In the series the test system is human peripheral blood mononuclear cells (PBMCs). In words: Resazurin-based cell cytotoxicity assay. The settings on record: 24 h. The procedure: The cytotoxic properties of the pea defensin Psd1 were investigated by resazurin-based cell cytotoxicity assay as previously described. In brief, PBMCs were seeded in 96-well plates at 2 × 10^6 cells per well in RPMI-1640 supplemented with 10% FBS and kept in a CO2 incubator for 24 h. After this, serial two-fold dilutions of defensin in a complete culture medium were added to the wells at final concentrations from 0.2 to 50 μM and the plates were incubated for 24 h. Resazurin (Sigma) was added at a final concentration of 70 µM, and the plates were incubated overnight (16–18 h). Fluorescent resorufin was registered using a 535/595 filter at PlateReader AF2200 (Eppendorf). Untreated cells were used as negative controls. Non-ionogenic detergent Triton X-100 and membrane-active peptide melittin from honeybee venom were used as positive controls. The cell viability was calculated according to the following equation: cell viability (%) = (Fsample/Fcontrol) × 100%. Cell lysis was monitored with an Olympus CKX41 microscope.

Experimental findings from article PMC10178127, “Immunomodulatory Effects of the Pea Defensin Psd1 in the Caco-2/Immune Cells Co-Culture upon Candida albicans Infection” (International Journal of Molecular Sciences, 2023) are described below.

Regarding “Psd1: pea defensin from Pisum sativum (UNIPROT P81929), recombinant peptide overexpressed in Escherichia coli (KTCEHLADTYRGVCFTNASCDDHCKNKAHLISGTCHNWKCFCTQNC; UniProt P81929 1-46, looked up)”, where the note is “0.2 to 50 μM”, the “cytotoxic activity on PBMCs” value is listed as “no cytotoxic activity”. For the setting “PBMCs, 50 μM”, this substance registered a Cell viability of 100%.
